This note sets out measurements from patent US20140294866A1 (Amgen, published 2014).

In test [1] the target is T1, recombinant mature myostatin (human, produced in E. coli) (human, UniProt O14793 267-375).
T1 sequence (looked up): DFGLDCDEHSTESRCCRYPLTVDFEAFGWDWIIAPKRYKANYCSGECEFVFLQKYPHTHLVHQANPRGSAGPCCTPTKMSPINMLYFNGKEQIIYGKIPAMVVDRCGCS
The test is described as follows: cell-based or functional assay.

The target of test [2] is T1, recombinant mature myostatin (human, …). Put plainly: KinExA solution based assay or BIAcore assay (not said which).
Test [3] has the same target. Put plainly: cell-based or functional assay. The source holds these as a separate data set.

By Kd is commonly meant the free concentration of one partner at which half of the binding sites on the other are occupied at equilibrium, for simple one-to-one binding.

Residue numbers refer to the chain shown, from its start.

B1: TN8-19 peptide (peptide)
peptide: QGHCTRWPWMCPPY
As to B1, the “IC50 (read off the curve); luciferase activity, C2C12 pMARE-luc reporter cells, 4 nM myostatin” value in test [1] is roughly 20 µM.

B2: 2x mTN8-19-7 peptibody (Fc fusion)
chain: GGGGGAQLADHGQCIRWPWMCPPEGWELEGSGSATGGSGSTASSGSGSATGLADHGQCIRWPWMCPPEGWELE
On to B2, for which, in test [2], the dissociation constant (Kd) is 12 pM.

B3: 2x mTN8-19-21 peptibody (Fc fusion)
chain: GGGGGAQSEYQGLCTRWPWMCPPQGWKLEGSGSATGGSGSTASSGSGSATGSEYQGLCTRWPWMCPPQGWKLE
notes: Human Fc form
For the molecule B3, the equilibrium dissociation constant (Kd) in test [2] was found to be 6 pM.

B4: 2x mTN8-19-33 peptibody (Fc fusion)
chain: B3 chain with S8P, Y10S, L13H, K27G, S52P, Y54S, L57H, K71G
For B4, the dissociation constant (Kd) in test [2] came to 3 pM.

B5: recombinant human activin receptor IIB/Fc chimera (R&D Systems) (Fc fusion, UniProt Q13705 19-134, looked up, not shown: a dimerising Fc or GST)
chain: SGRGEAETRECIYYNANWELERTNQSGLERCEGEQDKRLHCYASWRNSSGTIELVKKGCWLDDFNCYDRQECVATEENPQVYFCCCEGNFCNERFTHLPEAGGPEVTYEPPPTAPT
As for B5, the “IC50 (nM), C2C12 pMARE-luc myostatin activity assay” value in test [3] was roughly 83 nM.
